Drawing on publication doi:10.1101/444885 (bioRxiv, 2018), this text covers binding result and Kd for six molecules.

T1: DnaD DDBH2 domain (residues 129-232) (Bacillus subtilis, UniProt P39787 129-232)
T1 sequence: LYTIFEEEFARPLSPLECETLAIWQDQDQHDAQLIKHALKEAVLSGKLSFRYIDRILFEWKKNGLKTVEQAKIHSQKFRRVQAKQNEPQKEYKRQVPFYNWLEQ

B1: truncated DnaD DDBH2 domain (residues 129-196) (domain or fragment)
chain: LYTIFEEEFARPLSPLECETLAIWQDQDQHDAQLIKHALKEAVLSGKLSFRYIDRILFEWKKNGLKTV
B2: DnaA N191C, labelled with Cy3B or Atto647N (natural protein)
chain: MENILDLWNQALAQIEKKLSKPSFETWMKSTKAHSLQGDTLTITAPNEFARDWLESRYLHLIADTIYELTGEELSIKFVIPQNQDVEDFMPKPQVKKAVKEDTSDFPQNMLNPKYTFDTFVIGSGNRFAHAASLAVAEAPAKAYNPLFIYGGVGLGKTHLMHAIGHYVIDHNPSAKVVYLSSEKFTNEFICSIRDNKAVDFRNRYRNVDVLLIDDIQFLAGKEQTQEEFFHTFNTLHEESKQIVISSDRPPKEIPTLEDRLRSRFEWGLITDITPPDLETRIAILRKKAKAEGLDIPNEVMLYIANQIDSNIRELEGALIRVVAYSSLINKDINADLAAEALKDIIPSSKPKVITIKEIQRVVGQQFNIKLEDFKAKKRTKSVAFPRQIAMYLSREMTDSSLPKIGEEFGGRDHTTVIHAHEKISKLLADDEQLQQHVKEIKEQLK
B3: DnaA A198C, labelled with Cy3B or Atto647N (natural protein)
chain: B2 chain with C191N, A198C
modifications: Cy3B-maleimide or Atto647N-maleimide on the cysteine at 198
B4: DnaA(N191C/A198C) (natural protein)
chain: B2 chain with A198C
B5: DnaD (full length) (natural protein)
chain: MKKQQFIDMQEQGTSTIPNLLLTHYKQLGLNETELILLLKIKMHLEKGSYFPTPNQLQEGMSISVEECTNRLRMFIQKGFLFIEECEDQNGIKFEKYSLQPLWGKLYEYIQLAQNQTQERKAEGEQKSLYTIFEEEFARPLSPLECETLAIWQDQDQHDAQLIKHALKEAVLSGKLSFRYIDRILFEWKKNGLKTVEQAKIHSQKFRRVQAKQNEPQKEYKRQVPFYNWLEQ
B6: DnaA domain I (residues 1-81) (domain or fragment)
chain: MENILDLWNQALAQIEKKLSKPSFETWMKSTKAHSLQGDTLTITAPNEFARDWLESRYLHLIADTIYELTGEELSIKFVIP

Data set [1] has as its target B6. The data set can be described thus: NMR titration.
The data set “FRET or BRET” concerns the molecule itself. The data set can be described thus: FRET or BRET.
The data set “cross-linking” concerns the molecule itself. The data set can be described thus: cross-linking.
The data set “DnaA(N191C/A198C)” addresses B4. The data set can be described thus: loss and rescue of BMOE cross-linking of DnaA-DNA filaments.
The target in data set [2] is T1, DnaD DDBH2 domain (residues 129-232). The data set can be described thus: NMR titration.
For data set [3] the target is unchanged. The data set can be described thus: NMR titration. This is another data set of the same source.

Residue numbers refer to the chain shown, from its start. Names may count otherwise. Where two headings read alike, the source gives them in different places.

For B1, the binding result in data set [1] is “binds”.
On to B2, for which, in “FRET or BRET”, the binding result is “binds”.
Still for that read-out and setting: next, B3: “binds”.
Turning to B4, the binding result in the data set “cross-linking” is recorded as “binds”.
As to B5, the binding result with DnaA(N191C/A198C) is “binds”.
Take B6: the dissociation constant Kd came out at 768 ± 168 µM in data set [2] and 665 ± 251 µM in data set [3].
